Assay results reported in patent US20220195068A1 (TENEOBIO, published 2022).

Target: T1, human PSMA (Prostate Specific Membrane Antigen, Glutamate Carboxypeptidase II) on cells (human, UniProt Q04609 1-750)
T1 construct: whole, on cells; the cell line is named under assay; also called cell surface expressed PSMA; FOLH1
Experiment: flow cytometry on LNCaP cells
Experimental: Briefly, 50,000 target cells were stained with a dilution series of purified UniAbs™ for 30 minutes at 4° C. Following incubation, the cells were washed twice with flow cytometry buffer (1X PBS, 1% BSA, 0.1% NaN₃) and stained with goat F(ab')₂ anti-human IgG conjugated to R-phycoerythrin (PE) (Southern Biotech, cat. #2042-09) to detect cell-bound antibodies. After a 20-minute incubation at 4° C., the cells were washed twice with flow cytometry buffer and the mean fluorescence intensity (MFI) was measured by flow cytometry. The MFI of cells stained with secondary antibody alone were used for determination of background signal and binding of each antibody was converted to fold over background. Binding to cynomolgus PSMA positive cells was determined using the same protocol with the following modifications: the target cells were from Freestyle 293-F cells (ThermoFisher R79007) transiently transfected to express the extracellular domain of cynomolgus PSMA. In some experiments EC50 values were calculated using GraphPad Prism 7.

T1 sequence (Q04609 whole entry): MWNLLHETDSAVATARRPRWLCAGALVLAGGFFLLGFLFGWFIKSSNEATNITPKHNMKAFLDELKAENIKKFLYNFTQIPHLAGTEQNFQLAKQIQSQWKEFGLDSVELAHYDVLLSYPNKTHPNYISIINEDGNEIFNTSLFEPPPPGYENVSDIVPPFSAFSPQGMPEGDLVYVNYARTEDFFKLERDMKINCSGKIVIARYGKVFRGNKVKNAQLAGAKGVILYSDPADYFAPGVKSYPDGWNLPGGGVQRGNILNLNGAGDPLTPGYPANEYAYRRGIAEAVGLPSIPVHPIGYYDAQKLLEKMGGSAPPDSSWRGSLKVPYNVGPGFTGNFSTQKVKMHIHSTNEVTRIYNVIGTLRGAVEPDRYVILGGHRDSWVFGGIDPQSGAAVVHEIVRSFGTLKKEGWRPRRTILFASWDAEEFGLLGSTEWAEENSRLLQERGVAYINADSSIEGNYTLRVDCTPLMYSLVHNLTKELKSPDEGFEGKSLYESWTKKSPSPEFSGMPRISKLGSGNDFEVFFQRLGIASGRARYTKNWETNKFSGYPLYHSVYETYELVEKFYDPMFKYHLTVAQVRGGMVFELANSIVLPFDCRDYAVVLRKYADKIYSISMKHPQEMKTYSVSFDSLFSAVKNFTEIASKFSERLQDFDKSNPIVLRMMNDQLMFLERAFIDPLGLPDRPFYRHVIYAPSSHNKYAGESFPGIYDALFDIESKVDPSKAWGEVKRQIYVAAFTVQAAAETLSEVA

| Binder | fold over the background MFI signal [fold over background] |
| --- | --- |
| anti-PSMA heavy chain antibody clone ID 325748 (antibody, V domains shown, heavy chain-only antibody (UniAb), no light chain) VH: QVQLVESGGGVVQPGRSLRLSCAASGFSFSSYGMHWVRQAPGKGLEGVAVIWYDGSNRYYADSVKGRFTISRDNSKNTLYLQMNSLRAEDTAVYYCAREPRIGYYYESSGYYSLDYRGQGTLVTVSS | 193 |
| anti-PSMA heavy chain antibody clone ID 326087 (antibody, V domains shown, heavy chain-only antibody (UniAb), no light chain) VH: QVQLVESGGGVVQPGRSLRLSCAASGFIFRSYGMHWVRQAPGKGPEWVAVIWYDGSNKYYADSVKGRFTISRDNSKNTLYLQMNSLRAEDTAVYYCAREPRIGYYYDSSGYDSLDYRGQGTLVTVSS | 129 |
| anti-PSMA heavy chain antibody clone ID 325940 (antibody, V domains shown, heavy chain-only antibody (UniAb), no light chain) VH: QVQLVESGGGVVQPGRSLRLSCAASGFIFRSYGMHWVRQAPGKGPEWVAVIWYDGSNKYYADSVKGRFTISRDNSKNTLYLQMNSLRAEDTAVYYCAREPRIGYYYESSGYYSLDYRGQGTLVTVSS | 169 |
| anti-PSMA heavy chain antibody clone ID 326084 (antibody, V domains shown, heavy chain-only antibody (UniAb), no light chain) VH: QVQLVESGGGVVQPGRSLRLSCAASGFSFSSYGMHWVRQAPGKGLEGVAVIWYDGSNRYYADSVKGRFTISRDNSKNTLYLQMNSLRAEDTAVYYCAREPRIGYYYDSSGYYSLDYRGQGTLVTVSS | 125 |
| anti-PSMA heavy chain antibody clone ID 326028 (antibody, V domains shown, heavy chain-only antibody (UniAb), no light chain) VH: QVQLVESGGGVVQPGRSLRLSCAASGFSFRSYGMHWVRQAPGKGLEWVAVISYDGSNKYYADSVKGRFTISRDYSKNTLYLQMNSLRAEDTAVYYCAREPRIGYYYDSSGYDSLDYRGQGTLVTVSS | 117 |
| anti-PSMA heavy chain antibody clone ID 326029 (antibody, V domains shown, heavy chain-only antibody (UniAb), no light chain) VH: QVQLVESGGGVVQPGRSLRLSCAASGFSFSRYGMHWVRQAPGKGLEWVAVISYDGSNKYYADSVKGRFTISRDNSKNTLYLQMNSLRAEDTAVYYCAREPRVGYYYETSGYYSLDYRGQGTLVTVSS | 109 |
| anti-PSMA heavy chain antibody clone ID 325836 (antibody, V domains shown, heavy chain-only antibody (UniAb), no light chain) VH: QVQLVESGGGVVQPGRSLRLSCAASGFSFRSYGMHWVRQAPGKGLEWVAVIWYDGSNKYYADSVKGRFTISRDYSKNTLYLQMNSLRAEDTAVYYCAREPRIGYYYDSSGYDSLDYRGQGTLVTVSS | 163 |
| anti-PSMA heavy chain antibody clone ID 325742 (antibody, V domains shown, heavy chain-only antibody (UniAb), no light chain) VH: QVQLVESGGGVVQPGRSLRLSCAASGFSFSSYGMHWVRQAPGKGLEWVAVIWYDGSNKYYADSVKGRFTISRDYSKNTLYLQMNSLRAEDTAVYYCAREPRIGYYYESSGYDSLDYRGQGTLVTVSS | 200 |
| anti-PSMA heavy chain antibody clone ID 326027 (antibody, V domains shown, heavy chain-only antibody (UniAb), no light chain) VH: QVQLVESGGGVVQPGRSLRLSCAASGFSFRSYGMHWVRQAPGKGLEWVAVIWYDGSNKYYADSVKGRFTISRDNSKNTLYLQMNSLRAEDTAVYYCAREPRIGYYYDSSGYDSLDYRGQGTLVTVSS | 138 |
| anti-PSMA heavy chain antibody clone ID 345421 (antibody, V domains shown, heavy chain-only antibody (UniAb), no light chain) VH: QVQLVESVGGVVQPGRSLRLSCAASGFSFSSYGMHWVRQAPGKGLEGVAVIWYDGSNRYYADSVKGRFTISRDNSKNTLYLQMNSLRAEDTAVYYCAREPRIGYYYESSGYYSLDYRGQGTLVTVSS | 22 |
| anti-PSMA heavy chain antibody clone ID 325867 (antibody, V domains shown, heavy chain-only antibody (UniAb), no light chain; also called Antibody 1) VH: QVQLVESGGGVVQPGRSLRLSCAASGFSFRSYGMHWVRQAPGKGLEWVAVIWYDGSNKYYADSVKGRFTISRDYSKNTLYLQMNSLRAEDTAVYYCAREPRIGYYYESSGYDSLDYRGQGTLVTVSS | 210 |
| anti-PSMA heavy chain antibody clone ID 326116 (antibody, V domains shown, heavy chain-only antibody (UniAb), no light chain) VH: QVQLVESGGGVVQPGRSLRLSCAASGFSFSRYGMHWVRQAPGKGLEGVAVISYDGSNKYYADSVKGRFTISRDYSKNTLYLQMNSLRAEDTAVYYCAREPRIGYYYDSSGYDSLDYRGQGTLVTVSS | 38 |
| anti-PSMA heavy chain antibody clone ID 346172 (antibody, V domains shown, heavy chain-only antibody (UniAb), no light chain) VH: QLQLQESGPGLVKPSETLSLTCTVSGGSISSSSYYWGWIRQPPGKGLEWIGSIDYSGYTYYNPSLKSRVTISVDTSKNQFSLKLSSVTAADTAVYNCARHKAATADFDYRGQGTLVTVSS | 216 |
| anti-PSMA heavy chain antibody clone ID 325920 (antibody, V domains shown, heavy chain-only antibody (UniAb), no light chain; also called Antibody 2) VH: QLQLQESGPGLVKPSETLSLTCTVSGGSISSSSYYWGWIRQPPGKGLEWIGSIDYSGYTYYNPSLQSRVTISVDTSKNQFSLKLSSVTAADTAVYNCARHKAATADFDYRGQGTLVTVSS | 282 |
| anti-PSMA heavy chain antibody clone ID 326109 (antibody, V domains shown, heavy chain-only antibody (UniAb), no light chain) VH: QLQLQESGPGLVKPSETLSLTCTVSGGSISSNSYYWGWIRQSPGKGLEWLGSIYDSGSTHYNPSLKSRVIISGDTSKNQFSLKLSSVTAADTAVYYCARHKAATADFDYRGQGTLVTVSS | 25 |

Other lines, results leading:

| fold over the background MFI signal [fold over background] | Binder |
| --- | --- |
| 14 | anti-PSMA heavy chain antibody clone ID 345447 (antibody, V domains shown, heavy chain-only antibody (UniAb), no light chain) VH: QVQLVESGGGVVQPGRSLRLSCAASGFSFSSYGMHWVRQAPGKGLEGVAVISYDGSNRYYADSVKGRFTISRDNSKNTLYLQMNSLRAEDTAVYYCAREPRIGYYYESSGYYSLDYRGQGTLVTVSS |
| 84 | anti-PSMA heavy chain antibody clone ID 345443 (antibody, V domains shown, heavy chain-only antibody (UniAb), no light chain) VH: QVQLVESGGGVVQPGRSLRLSCAASGFSFSSYGMHWVRQAPGKGLEGVAVIWYDGSNRYYADSVKGRFTISRDNSKNTLFLQMNSLRAEDTAVYYCAREPRIGYYYESSGYYSLDYRGQGTLVTVSS |
| 13 | anti-PSMA heavy chain antibody clone ID 345438 (antibody, V domains shown, heavy chain-only antibody (UniAb), no light chain) VH: QVQLVESGGGVVQPGRSLRLSCAASGFSFSSYGMHWVRQAPGKGPEWVAVIWYDGSNKYYADSVKGRFTISRDNSKNTLYLQMNSLRAEDTAVYYCAREPRIGYYYESSGYYSLDYRGQGTLVTVSS |
| 87 | anti-PSMA heavy chain antibody clone ID 345436 (antibody, V domains shown, heavy chain-only antibody (UniAb), no light chain) VH: QVQLVESGGGVVQPGRSLRLSCAASGFSFSRYGMHWVRQAPGKGLEGVAVIWYDGSNKYYADSVKGRFTISRDNSKNTLYLQMNSLRAEDTAVYYCAREPRIGYYYESSGYYSLDYRGQGTLVTVSS |
| 80 | anti-PSMA heavy chain antibody clone ID 345490 (antibody, V domains shown, heavy chain-only antibody (UniAb), no light chain) VH: QVQLVESGGGLVKPGGSLRLSCAASGFSFSSYGMHWVRQAPGKGLEGVAVIWYDGSNRYYADSVKGRFTISRDNSKNTLYLQMNSLRAEDTAVYYCAREPRIGYYYESSGYYSLDYRGQGTLVTVSS |
| 102 | anti-PSMA heavy chain antibody clone ID 345461 (antibody, V domains shown, heavy chain-only antibody (UniAb), no light chain) VH: QVQLVESGGGVVQPGRSLRLSCAASGFSFTSYGMHWVRQAPGKGLEGVAVIWYDGSNRYYADSVKGRFTISRDNSKNTLYLQMNSLRAEDTAVYYCAREPRIGYYYESSGYYSLDYRGQGTLVTVSS |
| 47 | anti-PSMA heavy chain antibody clone ID 345480 (antibody, V domains shown, heavy chain-only antibody (UniAb), no light chain) VH: QVQLVESGGGVVQPGRSLRLSCAASGFSFSSYGMHWVRQAPGKGLEWVAVIWYDGSNRYYADSVKGRFTISRDNSKNTLYLQMNSLRAEDTAVYYCAREPRIGYYYESSGYYSLDYRGQGTLVTVSS |
| 68 | anti-PSMA heavy chain antibody clone ID 345463 (antibody, V domains shown, heavy chain-only antibody (UniAb), no light chain) VH: QVQLVESGGGVVQPGRSLRLSCAASGFIFRSYGMHWVRQAPGKGPEWVAVIWYDGSNKYYADSVKGRFTISRDNSKNTLYLQMNSLRAEDTAVYYCAREPRIGYYYESSGYYSLDYRGQGTLVTVSS |
| 101 | anti-PSMA heavy chain antibody clone ID 345493 (antibody, V domains shown, heavy chain-only antibody (UniAb), no light chain) VH: QVQLVESGGGVVQPGRSLRLSCAASGFSFSRYGMHWVRQAPGKGLEWVAVIWYDGSNRYYADSVKGRFTISRDNSKNTLYLQMNSLRAEDTAVYYCAREPRIGYYYESSGYYSLDYRGQGTLVTVSS |
| 71 | anti-PSMA heavy chain antibody clone ID 345485 (antibody, V domains shown, heavy chain-only antibody (UniAb), no light chain) VH: QVQLVESGGGVVQPGRSLRLSCAASGFSFRSYGMHWVRQAPGKGLEWVAVIWYDGSNKYYADSVKGRFTISRDNSKNTMYLQMNSLRAEDTAVYYCAREPRIGYYYESSGYYSLDYRGQGTLVTVSS |
| 23 | anti-PSMA heavy chain antibody clone ID 345444 (antibody, V domains shown, heavy chain-only antibody (UniAb), no light chain) VH: QVQLVESGGGVVQPGRSLRLSCAASGFTFSSYGMHWVRQAPGKGLEGVAVIWYDGSNRYYADSVKGRFTISRDNSKNTLYLQMNSLRAEDTAVYYCAREPRIGYYYESSGYYSLDYRGQGTLVTVSS |
| 112 | anti-PSMA heavy chain antibody clone ID 345497 (antibody, V domains shown, heavy chain-only antibody (UniAb), no light chain; also called HCAb 345497) VH: QVQLVESGGGVVQPGRSLRLSCAASGFSFSRYGMHWVRQAPGKGLEGVAVIWYDGSNRYYADSVKGRFTISRDNSKNTLYLQMNSLRAEDTAVYYCAREPRIGYYYESSGYYSLDYRGQGTLVTVSS |
| 80 | anti-PSMA heavy chain antibody clone ID 345482 (antibody, V domains shown, heavy chain-only antibody (UniAb), no light chain) VH: QVQLVESGGGVVQPGRSLRLSCAASGFSFSSYGMHWVRQAPGKGLEGVAVIWYDGSNRYYADSVKGRFTISRDSSKNTLYLQMNSLRAEDTAVYYCAREPRIGYYYESSGYYSLDYRGQGTLVTVSS |
| 264 | anti-PSMA heavy chain antibody clone ID 346181 (antibody, V domains shown, heavy chain-only antibody (UniAb), no light chain; also called HCAb 346181) VH: QLQLQESGPGLVKPSETLSLTCTVSGGSISSSNYFWGWIRQSPGKGLEWIGSIDYSGYTYYNPSLKSRVTISVDTSKNQFSLKLSSVTAADTAVYNCARHKAATADFDYRGQGTLVTVSS |
| 243 | anti-PSMA heavy chain antibody clone ID 346165 (antibody, V domains shown, heavy chain-only antibody (UniAb), no light chain) VH: QLQLQESGPGLVKPSETLSLTCTVSGGSISSSSYYWGWIRQPPGKGLEWIGSVDYSGYTYYNPSLQSRVTISVDTSKNQFSLKLSSVTAADTAVYNCARHKAATADFDYRGQGTLVTVSS |
